Measured values taken from US5811533.
Where two headings read alike, the source gives them in different places.

How the values were obtained:
PDGF = test: filter; conditions: specificity
[1] = system: T1, VEGF165 (recombinant human vascular endothelial growth factor, 165 aa form) (Homo sapiens), P15692-4; test: filter
T1 sequence: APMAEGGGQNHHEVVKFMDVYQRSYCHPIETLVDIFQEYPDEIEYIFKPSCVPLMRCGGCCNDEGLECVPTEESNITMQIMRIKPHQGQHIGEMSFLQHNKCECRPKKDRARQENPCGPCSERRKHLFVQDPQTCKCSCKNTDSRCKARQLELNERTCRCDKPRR

[2] = 2'-NH2 pyrimidines, random pool

In the case of “GGCCGGUAGUCGCAUGGCCCAUCGCGCCCGG [ligand 100t]”, the Kd (PDGF) is reported as 600 nM.
With “CTACCTACGATCTGACTAGCACAAGGGGTCCTGNNGAATGGGGGAATACGCTAGCCGAAGCTTACTCTCATGTAGTTCCT [ssDNA b55]” the Kd [1] was 15 nM.
“GGGAGACAAGAAUAACGCUCAANNNNNNNNNNNNNNNNNNNNNNNNNNNNNNUUCGACAGGAGGCUCACAACAGGC [Random RNA A (30N8)]” gave a Kd [1, 2] of 83 nM.
In the case of “CTACCTACGATCTGACTAGCACGCAAGAGAGGTCNCCGAATGGCAGTCTCAGCCGCTAACAGCTTACTCTCATGTAGTTCCT [ssDNA b91]”, the Kd ([1]; clone listed in families 1 and 2) is reported as 3.9 nM.
“GGGAGCUCAGAAUAAACGCUCAANNNNNNNNNNNNNNNNNNNNNNNNNNNNNNUUCGACAUGAGGCCCGGAUCCGGC [random RNA pool (30N)]” showed a Kd ([1]; random pool) of 200 nM.
“GGGAGGACGAUGCGGNNNNNNNNNNNNNNNNNNNNNNNNNNNNNNNNNNNNNNNNNNNNNNNNNNCAGACGACUCGCCCGA [Random RNA B (50N7)]” was tested, and the Kd [1, 2] was 240 nM.
“ATCCGCCTGATTAGCGATACTGGTGTGAACCAGACCTACNGGAACGTTATCGCTTGTGACTTGAGCAAAATCACCTGCAGGGG [ssDNA 44]” gave a Kd [1] of 0.4 nM.
“CTACCTACGATCTGACTAGCTGCNNGCGGGCGGTTCTCCGGATGGGACCATAAGGCTTTAGCTTAGCTTACTCTCATGTAGTTCCT [ssDNA b54]” was tested, and the Kd [1] was 2.5 nM.
With “CTACCTACGATCTGACTAGCCCACTGCATAGAGATACTGGATTCGACNNNCCAAAGTTTCGGTGCTTAGCTTACTCTCATGTAGTTCCT [ssDNA b96]” the Kd [1] was 1.5 nM.
Sequence “ATCCGCCTGATTAGCGATACTNNNNNNNNNNNNNNNNNNNNNNNNNNNNNNNNNNNNNNNNACTTGAGCAAAATCACCTGCAGGGG [starting random ssDNA pool]” has a Kd ([1]; random pool) of 200 nM.
“CTACCTACGATCTGACTAGCCCACTGCAGAGAGTCAACCTTACGANGCCAAGGTTGCGGTGCTTAGCTTACTCTCATGTAGTTCCT [ssDNA b97]” gave a Kd [1] greater than 1 nM.
With “ATCCGCCTGATTAGCGATACTGGTGGACTAGAGGNCAGCAAACGATCCTTGGTTCGCGTCCACTTGAGCAAAATCACCTGCAGGGG [ssDNA 32]” the Kd [1] was 2 nM.
“CTACCTACGATCTGACTAGCATCCTTCCGAATGGGGGAAATGGCGNCCCAGCTTACTCTCATGTAGTTCCT [ssDNA b89]” was tested, and the Kd [1] was 2 nM.
“TGGACTAGAGGNCAGCAAACGATCCTTGGTTCGCGTCC [32t]” gave a Kd [1] of 17 nM.
“CTACCTACGATCTGACTAGCCCACTGCATAGAGAGTCGCAAGACACGGTGCTTTATTCNCCGCTTAGCTTACTCTCATGTAGTTCCT [ssDNA b62]” showed a Kd [1] of 2.9 nM.
In the case of “GGAAGCUUGAUGGGUGACACACGUCAUGCCGAGCU [ligand 44t]”, the Kd (PDGF) is reported as 600 nM.
